Measurements as given in patent US6884616.

Legend:
[1] = target: Recombinant human Factor IX immunoprecipitated from supernatants of GPIIb-FIX(WT.I1)-transfected HEL cells (UniProt P00740)
[2] = target: Mononine (purified Factor IX) (UniProt P00740)

## Factor XIa (Enzyme Research Lab., Swansea, UK)
[1]
  FIX cleavage after incubation with FXIa (immunoblot of immunoprecipitated FIX, enzyme/substrate 1/40): activation of the immunoprecipitated FIX from HEL cells resulted in the appearance of two bands corresponding to the heavy chain (29 kDa) and the light chain (19 kDa)
[2]
  FIX cleavage after incubation with FXIa (rate of activation and protein profile): The rate of activation and the protein profile from HEL supernatants was similar to the results obtained with Mononine
